{"source": "patent US20100061996", "target": "pro-uPA (pro-urokinase-type plasminogen activator, single-chain zymogen form of uPA) (UniProt P00749)"}
{"substance": "soluble His-tagged hepsin comprising the entire extracellular domain of human hepsin (Arg45-Leu417)", "values": [{"measurement": "cleavage of pro-uPA (SDS-PAGE, 1.5 uM pro-uPA, 15 nM hepsin)", "value": "Incubation of pro-uPA with hepsin resulted in a time-dependent cleavage of the single-chain form into the two-chain form"}, {"measurement": "k (first-order rate constant of pro-uPA activation)", "value": 0.0871, "unit": "min⁻¹"}, {"measurement": "kcat/Km of pro-uPA activation", "value": 484000, "unit": "M⁻¹ s⁻¹"}]}
